Reference: paper PMC9352680, “A comprehensive thermodynamic model for RNA binding by the Saccharomyces cerevisiae Pumilio protein PUF4”

T1: PUF4 RNA-binding domain (Saccharomyces cerevisiae, UniProt P25339 537-888)
T1 sequence: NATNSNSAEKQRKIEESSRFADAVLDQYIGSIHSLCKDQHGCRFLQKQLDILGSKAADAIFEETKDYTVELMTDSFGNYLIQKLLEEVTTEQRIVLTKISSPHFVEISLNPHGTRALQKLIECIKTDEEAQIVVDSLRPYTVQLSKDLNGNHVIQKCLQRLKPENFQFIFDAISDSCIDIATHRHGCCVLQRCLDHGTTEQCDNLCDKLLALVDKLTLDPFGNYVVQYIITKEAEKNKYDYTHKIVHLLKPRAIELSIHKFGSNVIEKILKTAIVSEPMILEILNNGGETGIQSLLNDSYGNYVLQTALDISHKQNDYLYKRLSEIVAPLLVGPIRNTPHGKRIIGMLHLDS

B1: Id_ii_S2_P3E.2_K3.1_C3.2_[C-2G]_[T-1G]_H3.1_A3.1_F3.1_T3.2_[T9A]_[A10G] (ssRNA)
RNA: UUUGAUUAAUAUGAUAUCGUUCUUUCUGGUGUAUAUAAGUUCUUUCUCGAUAUCAUAUUAAUCUUU
B2: Id_ii_S2_P3E.2_K3.1_C3.2_[C-2G]_H3.1_A3.1_F3.1_T3.2_[T9C]_[A10T] (ssRNA)
RNA: UUUGAUUAAUAUGAUAUCGUUCUUUCUGUUGUAUAUACUUUCUUUCUCGAUAUCAUAUUAAUCUUU
B3: Id_ii_S2_P3E.2_K3.1_C3.2_[C-2G]_H3.1_A3.1_F3.1_T3.2_[A10C] (ssRNA)
RNA: UUUGAUUAAUAUGAUAUCGUUCUUUCUGUUGUAUAUAUCUUCUUUCUCGAUAUCAUAUUAAUCUUU
B4: Id_ii_S2_P3E.2_K3.1_C3.2_[C-2G]_[T-1C]_H3.1_A3.1_F3.1_T3.2_[A10T] (ssRNA)
RNA: UUUGAUUAAUAUGAUAUCGUUCUUUCUGCUGUAUAUAUUUUCUUUCUCGAUAUCAUAUUAAUCUUU
B5: Id_ii_S2_P3E.2_K3.1_C3.2_[C-2G]_[T-1C]_H3.1_A3.1_F3.1_T3.2_[T9C]_[A10G] (ssRNA)
RNA: UUUGAUUAAUAUGAUAUCGUUCUUUCUGCUGUAUAUACGUUCUUUCUCGAUAUCAUAUUAAUCUUU
B6: Id_ii_S2_P3E.2_K3.1_C3.2_[C-2G]_[T-1G]_H3.1_A3.1_F3.1_T3.2_[A10G] (ssRNA)
RNA: UUUGAUUAAUAUGAUAUCGUUCUUUCUGGUGUAUAUAUGUUCUUUCUCGAUAUCAUAUUAAUCUUU
B7: Id_ii_S2_P3E.2_K3.1_C3.2_[C-2G]_[T-1G]_H3.1_A3.1_F3.1_T3.2_[T9A]_[A10T] (ssRNA)
RNA: UUUGAUUAAUAUGAUAUCGUUCUUUCUGGUGUAUAUAAUUUCUUUCUCGAUAUCAUAUUAAUCUUU
B8: Id_ii_S2_P3E.2_K3.1_C3.2_[C-2G]_H3.1_A3.1_F3.1_T3.2_[T9A]_[A10G] (ssRNA)
RNA: UUUGAUUAAUAUGAUAUCGUUCUUUCUGUUGUAUAUAAGUUCUUUCUCGAUAUCAUAUUAAUCUUU
B9: Id_ii_S2_P3E.2_K3.1_C3.2_[C-2G]_H3.1_A3.1_F3.1_T3.2_[T9C]_[A10C] (ssRNA)
RNA: UUUGAUUAAUAUGAUAUCGUUCUUUCUGUUGUAUAUACCUUCUUUCUCGAUAUCAUAUUAAUCUUU

Molecular target: T1, PUF4 RNA-binding domain
Experiment: Mg; RNA-MaP; 20 mM Na-HEPES pH 7.4, 30 mM KOAc, 0.75 mM MgCl2, 0.1% Tween-20, 5% glycerol, 0.1 mg/mL BSA, 2 mM DTT; 25 C; 0.0125-409.6 nM protein
Settings: tags: N-His6-TEV cleaved; C-SNAP kept, Cy3B-labelled; label: tethered on chip by stalled RNA polymerase

| Binder | Kd [nM] |
| --- | --- |
| UCUCUUCAACACUUAUUAUCUCUCUU (ssRNA) [Id_ii_S1_P5E.4_K5.3_C5.2_[T-1A]_H5.3_A5.1_F5.1_T5.2_[A12C]] | > 2300 |
| UCUCUUCAACACUUAUUAAUUCUCUU (ssRNA) [Id_ii_S1_P5E.4_K5.3_C5.2_[T-1A]_H5.3_A5.1_F5.1_T5.2_[T11A]_[A12T]] | > 2300 |
| UCUCUUAUACACUUAUUAUCUCUCUU (ssRNA) [Id_ii_S1_P5E.4_K5.3_C5.2_[C-2A]_H5.3_A5.1_F5.1_T5.2_[A12C]] | 435 |
| UCUCUUCCACACUUAUUACCUCUCUU (ssRNA) [Id_ii_S1_P5E.4_K5.3_C5.2_[T-1C]_H5.3_A5.1_F5.1_T5.2_[T11C]_[A12C]] | > 2300 |
| UCUCUUCAACACUUAUUAUGUCUCUU (ssRNA) [Id_ii_S1_P5E.4_K5.3_C5.2_[T-1A]_H5.3_A5.1_F5.1_T5.2_[A12G]] | > 2300 |
| UCUCUUCCACACUUAUUACAUCUCUU (ssRNA) [Id_ii_S1_P5E.4_K5.3_C5.2_[T-1C]_H5.3_A5.1_F5.1_T5.2_[T11C]] | > 2300 |
| UCUCUUCCACACUUAUUACGUCUCUU (ssRNA) [Id_ii_S1_P5E.4_K5.3_C5.2_[T-1C]_H5.3_A5.1_F5.1_T5.2_[T11C]_[A12G]] | > 2300 |
| UCUCUUCCACACUUAUUAACUCUCUU (ssRNA) [Id_ii_S1_P5E.4_K5.3_C5.2_[T-1C]_H5.3_A5.1_F5.1_T5.2_[T11A]_[A12C]] | > 2300 |
| UCUCUUUGUAUUAUCCUCUCUU (ssRNA) [Ib_S1_P5E.1_K5.1_C5.1_H5.1_A5.1_F5.1_[T9C]_[A10C]_T5.1] | 26.8 |
| UCUCUUCCACACUUAUUACUUCUCUU (ssRNA) [Id_ii_S1_P5E.4_K5.3_C5.2_[T-1C]_H5.3_A5.1_F5.1_T5.2_[T11C]_[A12T]] | > 2300 |
| UCUCUUUGUAUUAUAUUCUCUU (ssRNA) [Ib_S1_P5E.1_K5.1_C5.1_H5.1_A5.1_F5.1_[T9A]_[A10T]_T5.1] | 1.1 |
| UCUCUUCUACACUUAUUACCUCUCUU (ssRNA) [Id_ii_S1_P5E.4_K5.3_C5.2_H5.3_A5.1_F5.1_T5.2_[T11C]_[A12C]] | > 2300 |
| UCUCUUCGACACUUAUUAUUUCUCUU (ssRNA) [Id_ii_S1_P5E.4_K5.3_C5.2_[T-1G]_H5.3_A5.1_F5.1_T5.2_[A12T]] | > 2300 |
| UCUCUUAAACACUUAUUAUUUCUCUU (ssRNA) [Id_ii_S1_P5E.4_K5.3_C5.2_[C-2A]_[T-1A]_H5.3_A5.1_F5.1_T5.2_[A12T]] | > 2300 |
| UCUCUUCCACACUUAUUAGCUCUCUU (ssRNA) [Id_ii_S1_P5E.4_K5.3_C5.2_[T-1C]_H5.3_A5.1_F5.1_T5.2_[T11G]_[A12C]] | > 2300 |
| UCUCUUCCACACUUAUUAAUUCUCUU (ssRNA) [Id_ii_S1_P5E.4_K5.3_C5.2_[T-1C]_H5.3_A5.1_F5.1_T5.2_[T11A]_[A12T]] | > 2300 |
| UCUCUUAAACACUUAUUAUAUCUCUU (ssRNA) [Id_ii_S1_P5E.4_K5.3_C5.2_[C-2A]_[T-1A]_H5.3_A5.1_F5.1_T5.2] | > 2300 |
| UCUCUUCAACACUUAUUAACUCUCUU (ssRNA) [Id_ii_S1_P5E.4_K5.3_C5.2_[T-1A]_H5.3_A5.1_F5.1_T5.2_[T11A]_[A12C]] | > 2300 |
| UCUCUUCGACACUUAUUAAUUCUCUU (ssRNA) [Id_ii_S1_P5E.4_K5.3_C5.2_[T-1G]_H5.3_A5.1_F5.1_T5.2_[T11A]_[A12T]] | > 2300 |
| UCUCUUCCACACUUAUUAAAUCUCUU (ssRNA) [Id_ii_S1_P5E.4_K5.3_C5.2_[T-1C]_H5.3_A5.1_F5.1_T5.2_[T11A]] | > 2300 |
| UCUCUUAUACACUUAUUACCUCUCUU (ssRNA) [Id_ii_S1_P5E.4_K5.3_C5.2_[C-2A]_H5.3_A5.1_F5.1_T5.2_[T11C]_[A12C]] | 606 |
| UCUCUUAUACACUUAUUAAUUCUCUU (ssRNA) [Id_ii_S1_P5E.4_K5.3_C5.2_[C-2A]_H5.3_A5.1_F5.1_T5.2_[T11A]_[A12T]] | 517 |
| UCUCUUCGACACUUAUUACUUCUCUU (ssRNA) [Id_ii_S1_P5E.4_K5.3_C5.2_[T-1G]_H5.3_A5.1_F5.1_T5.2_[T11C]_[A12T]] | > 2300 |
| UCUCUUAUACACUUAUUACUUCUCUU (ssRNA) [Id_ii_S1_P5E.4_K5.3_C5.2_[C-2A]_H5.3_A5.1_F5.1_T5.2_[T11C]_[A12T]] | 666 |
| UCUCUUCAACACUUAUUAGCUCUCUU (ssRNA) [Id_ii_S1_P5E.4_K5.3_C5.2_[T-1A]_H5.3_A5.1_F5.1_T5.2_[T11G]_[A12C]] | > 2300 |
| UCUCUUCAACACUUAUUACCUCUCUU (ssRNA) [Id_ii_S1_P5E.4_K5.3_C5.2_[T-1A]_H5.3_A5.1_F5.1_T5.2_[T11C]_[A12C]] | > 2300 |
| B1 | 11.8 |

| Binder | Kd [nM] |
| --- | --- |
| B2 | 44.5 |
| B3 | 8.98 |
| B4 | 1.77 |
| B5 | 20.2 |
| B6 | 5.15 |
| B7 | 3.82 |
| B8 | 7.87 |
| B9 | 18 |
| UCUCUUCGACACUUAUUAACUCUCUU (ssRNA) [Id_ii_S1_P5E.4_K5.3_C5.2_[T-1G]_H5.3_A5.1_F5.1_T5.2_[T11A]_[A12C]] | > 2300 |
| UCUCUUCUACACUUAUUAUAUCUCUU (ssRNA) [Id_ii_S1_P5E.4_K5.3_C5.2_H5.3_A5.1_F5.1_T5.2] | > 2300 |
| UCUCUUCAACACUUAUUACAUCUCUU (ssRNA) [Id_ii_S1_P5E.4_K5.3_C5.2_[T-1A]_H5.3_A5.1_F5.1_T5.2_[T11C]] | > 2300 |
| UCUCUUCCACACUUAUUAUAUCUCUU (ssRNA) [Id_ii_S1_P5E.4_K5.3_C5.2_[T-1C]_H5.3_A5.1_F5.1_T5.2] | > 2300 |
| UCUCUUCGACACUUAUUAAAUCUCUU (ssRNA) [Id_ii_S1_P5E.4_K5.3_C5.2_[T-1G]_H5.3_A5.1_F5.1_T5.2_[T11A]] | > 2300 |
| UCUCUUAUACACUUAUUAUUUCUCUU (ssRNA) [Id_ii_S1_P5E.4_K5.3_C5.2_[C-2A]_H5.3_A5.1_F5.1_T5.2_[A12T]] | 517 |
| UCUCUUUGUAUUAUAGUCUCUU (ssRNA) [Ic_S1_P5E.1_K5.1_C5.1_H5.1_A5.1_F5.1_[T9A]_[A10G]_T5.1] | 0.924 |
| UCUCUUAUACACUUAUUAACUCUCUU (ssRNA) [Id_ii_S1_P5E.4_K5.3_C5.2_[C-2A]_H5.3_A5.1_F5.1_T5.2_[T11A]_[A12C]] | 464 |
| UCUCUUUGUAUUAUACUCUCUU (ssRNA) [Ic_S1_P5E.1_K5.1_C5.1_H5.1_A5.1_F5.1_[T9A]_[A10C]_T5.1] | 2.48 |
| UCUCUUAAACACUUAUUAAUUCUCUU (ssRNA) [Id_ii_S1_P5E.4_K5.3_C5.2_[C-2A]_[T-1A]_H5.3_A5.1_F5.1_T5.2_[T11A]_[A12T]] | > 2300 |
| UCUCUUAUACACUUAUUAGCUCUCUU (ssRNA) [Id_ii_S1_P5E.4_K5.3_C5.2_[C-2A]_H5.3_A5.1_F5.1_T5.2_[T11G]_[A12C]] | 647 |
| UCUCUUCGACACUUAUUAUCUCUCUU (ssRNA) [Id_ii_S1_P5E.4_K5.3_C5.2_[T-1G]_H5.3_A5.1_F5.1_T5.2_[A12C]] | > 2300 |
| UCUCUUUGUAUUAUCUUCUCUU (ssRNA) [Ic_S1_P5E.1_K5.1_C5.1_H5.1_A5.1_F5.1_[T9C]_[A10T]_T5.1] | 18 |
| UCUCUUAUACACUUAUUAAAUCUCUU (ssRNA) [Id_ii_S1_P5E.4_K5.3_C5.2_[C-2A]_H5.3_A5.1_F5.1_T5.2_[T11A]] | 744 |
| UCUCUUAUACACUUAUUACGUCUCUU (ssRNA) [Id_ii_S1_P5E.4_K5.3_C5.2_[C-2A]_H5.3_A5.1_F5.1_T5.2_[T11C]_[A12G]] | 907 |
| UCUCUUCAACACUUAUUAGAUCUCUU (ssRNA) [Id_ii_S1_P5E.4_K5.3_C5.2_[T-1A]_H5.3_A5.1_F5.1_T5.2_[T11G]] | > 2300 |
| UCUCUUCAACACUUAUUAAAUCUCUU (ssRNA) [Id_ii_S1_P5E.4_K5.3_C5.2_[T-1A]_H5.3_A5.1_F5.1_T5.2_[T11A]] | > 2300 |
| UCUCUUAUACACUUAUUAUAUCUCUU (ssRNA) [Id_ii_S1_P5E.4_K5.3_C5.2_[C-2A]_H5.3_A5.1_F5.1_T5.2] | 330 |
| UCUCUUAUACACUUAUUACAUCUCUU (ssRNA) [Id_ii_S1_P5E.4_K5.3_C5.2_[C-2A]_H5.3_A5.1_F5.1_T5.2_[T11C]] | 489 |
